Source: patent US7125658B2, “Small protein that interacts with a ribonucleotide reductase subunit and uses thereof” (The Trustees of Columbia University in the City of New York, priority 1998, dated 2006)

B1: GBD-Sml1 two-hybrid fusion (plasmid pWJ728) (other)
chain: MKLLSSIEQACDICRLKKLKCSKEKPKCAKCLKNNWECRYSPKTKRSPLTRAHLTEVESRLERLEQLFLLIFPREDLDMILKMDSLQDIKALLTGLFVQDNVNKDAVTDRLASVETDMPLTLRQHRISATSSSEESSNKGQRQLTVSMQNSQDYFYAQNRCQQQQAPSTLRTVTMAEFRRVPLPPMAEVPMLSTQNSMGSSASASASSLEMWEKDLEERLNSIDHDMNNNKFGSGELKSMFNQGKVEEMDF
notes: also called GBD fusion SML1
B2: GAD-Sml1 two-hybrid fusion (plasmid pWJ684, pACTII) (other, not shown: large carriers)
chain: MQNSQDYFYAQNRCQQQQAPSTLRTVTMAEFRRVPLPPMAEVPMLSTQNSMGSSASASASSLEMWEKDLEERLNSIDHDMNNNKFGSGELKSMFNQGKVEEMDF
B3: GBD-Rnr2 two-hybrid fusion (plasmid pWJ729) (other, UniProt P04386 1-147, looked up)
chain: MKLLSSIEQACDICRLKKLKCSKEKPKCAKCLKNNWECRYSPKTKRSPLTRAHLTEVESRLERLEQLFLLIFPREDLDMILKMDSLQDIKALLTGLFVQDNVNKDAVTDRLASVETDMPLTLRQHRISATSSSEESSNKGQRQLTVSMPKETPSKAAADALSDLEIKDSKSNLNKELETLREENRVKSDMLKEKLSKDAENHKAYLKSHQVHRHKLKEMEKEEPLLNEDKERTVLFPIKYHEIWQAYKRAEASFWTAEEIDLSKDIHDWNNRMNENERFFISRVLAFFAASDGIVNENLVENFSTEVQIPEAKSFYGFQIMIENIHSETYSLLIDTYIKDPKESEFLFNAIHTIPEIGEKAEWALRWIQDADALFGERLVAFASIEGVFFSGSFASIFWLKKRGMMPGLTFSNELICRDEGLHTDFACLLFAHLKNKPDPAIVEKIVTEAVEIEQRYFLDALPVALLGMNADLMNQYVEFVADRLLVAFGNKKYYKVENPFDFMENISLAGKTNFFEKRVSDYQKAGVMSKSTKQEAGAFTFNEDF

Assays:
[1] = molecular target: T1, GAD-Rnr2 two-hybrid fusion (plasmid pWJ746) (yeast (Saccharomyces cerevisiae), UniProt P09938 1-399); experiment: yeast two-hybrid, GBD-Sml1 with GAD-Rnr2
T1 construct: Whole RNR2 ORF as cloned
T1 sequence (looked up): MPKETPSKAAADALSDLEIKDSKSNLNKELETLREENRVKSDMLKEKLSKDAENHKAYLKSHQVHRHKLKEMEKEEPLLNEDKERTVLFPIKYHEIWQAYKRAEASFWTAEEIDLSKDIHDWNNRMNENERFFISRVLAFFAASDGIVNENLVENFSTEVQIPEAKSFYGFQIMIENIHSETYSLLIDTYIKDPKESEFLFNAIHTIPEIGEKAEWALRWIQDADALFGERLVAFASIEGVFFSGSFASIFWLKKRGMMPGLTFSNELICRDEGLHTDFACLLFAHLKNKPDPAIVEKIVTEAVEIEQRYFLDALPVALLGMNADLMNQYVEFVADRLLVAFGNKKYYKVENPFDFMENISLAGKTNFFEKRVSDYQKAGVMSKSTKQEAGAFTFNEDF
Source text: (§1) We next tested the possibility that Sml1 interacts with the subunit(s) of RNR since such interactions may provide a regulatory mechanism to inhibit RNR activity. […] In addition, Rnr1 and Rnr2 each interacts with itself, however these interactions are much weaker than the interaction between Sml1 and Rnr1 (Table 2).
(§2) The strains and plasmids for two-hybrid analysis were PJ69-4A, pGBD-C2, pGAD-C2 (James et al., 1996) and pACTII (CLONTECH® Inc.). The primer pair pB-SML1 5' (SEQ ID NO: 11) and pGBD-SML1 3' (SEQ ID NO: 13) (Table 4) was used to amplify the SML1 ORF. After digestion with BamHI and PstI, this PCR product was cloned into the BamHI-PstI sites of pGBD-C2 to construct plasmid pWJ728. Similarly, plasmid pWJ684 contains a BamHI fragment from the PCR product of the SML1 ORF generated using the primer pair pB-SML1 5' and pB-SML1 3' (SEQ ID NO: 12) (Table 4) and inserted at the BamHI site of pACTII. PCR fragments containing the RNR1 or the RNR2 ORF were generated by primer pairs RNR1-ORF 5' (SEQ ID NO: 14) and RNR1 3' (SEQ ID NO: 15) or RNR2-ORF 5' (SEQ ID NO: 17) and RNR2 3' (SEQ ID NO: 16) (Table 4). These fragments were cloned into the BamHI-PstI site of pGBD-C2 and pGAD-C2 to construct pWJ731 and pWJ745 or pWJ729 and pWJ746 respectively.
(§3) The GAL1-HIS3 reporter was assayed on SC-HIS-LEU-TRP medium plus 1-2 mM 3-aminotriazole. […]

[2] = molecular target: B2; experiment: cell-based or functional assay
[3] = molecular target: T2, GAD-Rnr1 two-hybrid fusion (plasmid pWJ745) (yeast (Saccharomyces cerevisiae), UniProt P21524 1-888); experiment: cell-based or functional assay
T2 sequence (looked up): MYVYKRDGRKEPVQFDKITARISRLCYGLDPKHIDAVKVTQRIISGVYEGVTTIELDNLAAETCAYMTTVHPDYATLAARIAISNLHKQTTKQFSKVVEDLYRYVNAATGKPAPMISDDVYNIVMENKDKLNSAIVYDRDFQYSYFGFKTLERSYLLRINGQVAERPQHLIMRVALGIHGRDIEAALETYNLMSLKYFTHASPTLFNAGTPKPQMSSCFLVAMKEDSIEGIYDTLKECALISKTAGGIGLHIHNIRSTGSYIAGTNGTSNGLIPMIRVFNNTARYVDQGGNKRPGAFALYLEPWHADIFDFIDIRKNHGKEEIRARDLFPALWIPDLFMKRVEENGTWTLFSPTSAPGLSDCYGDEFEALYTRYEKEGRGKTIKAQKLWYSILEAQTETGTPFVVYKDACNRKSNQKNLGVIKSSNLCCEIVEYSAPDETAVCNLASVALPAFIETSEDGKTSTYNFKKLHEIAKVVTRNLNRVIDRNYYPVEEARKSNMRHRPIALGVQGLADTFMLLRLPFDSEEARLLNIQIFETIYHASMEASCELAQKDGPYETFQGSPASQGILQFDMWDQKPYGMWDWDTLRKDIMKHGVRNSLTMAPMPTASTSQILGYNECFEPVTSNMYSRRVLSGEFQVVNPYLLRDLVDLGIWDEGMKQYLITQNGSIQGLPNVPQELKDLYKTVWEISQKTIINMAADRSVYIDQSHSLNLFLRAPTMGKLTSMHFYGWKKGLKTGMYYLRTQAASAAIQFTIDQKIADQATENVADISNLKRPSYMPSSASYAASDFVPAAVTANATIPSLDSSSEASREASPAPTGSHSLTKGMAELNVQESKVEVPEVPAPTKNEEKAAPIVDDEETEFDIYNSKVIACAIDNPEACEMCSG

[4] = molecular target: T3, GAD (Gal4 activation domain alone, empty vector control) (UniProt P04386 768-881); experiment: cell-based or functional assay
T3 sequence (looked up): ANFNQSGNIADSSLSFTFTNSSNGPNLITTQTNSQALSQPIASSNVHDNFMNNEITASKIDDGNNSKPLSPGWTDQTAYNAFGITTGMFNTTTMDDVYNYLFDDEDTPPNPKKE

[5] = molecular target: B3; experiment: yeast two-hybrid, GAD-Sml1 with GBD-Rnr2
Source text: as §1, §2, §3

[6] = molecular target: T1, GAD-Rnr2 two-hybrid fusion (plasmid …); experiment: cell-based or functional assay

Binder	binding result [1]	two-hybrid LacZ activity [2] [Miller Units]	two-hybrid LacZ activity [3] [Miller Units]	two-hybrid LacZ activity [4] [Miller Units]	binding result [5]	two-hybrid LacZ activity [6] [Miller Units]
B1	no binding	3.3	31	4	–	–
B2	–	–	–	–	no binding	–
B3	–	0.9	–	1.4	–	2.3
